Results: patent US20230416363A1 (KADMON, published 2023)

How the values were obtained:
[1] = biological target: T1, human PD-1 expressed on cells (human, UniProt Q15116 25-288); assay: cell-based or functional assay
[2] = biological target: T1, human PD-1 expressed on cells; assay: flow cytometry, activated PBMC donor FA
[3] = biological target: T2, hPD-1-Fc (human, UniProt Q15116 25-167); assay: SPR, range over experiments
T2 construct: domain: IgV domain; also called human PD-1-Fc; not shown: human IgG1 Fc
T2 sequence (Q15116 25-167 limits assumed): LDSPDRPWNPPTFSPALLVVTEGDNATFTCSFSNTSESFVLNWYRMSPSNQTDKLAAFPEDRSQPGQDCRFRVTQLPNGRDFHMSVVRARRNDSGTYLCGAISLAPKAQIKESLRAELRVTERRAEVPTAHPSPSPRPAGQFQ

[4] = biological target: T3, hPD1 (soluble, ELISA of Example 20) (human, UniProt Q15116 25-167, limits assumed); assay: ELISA, hPD1
T3 sequence (Q15116 25-167 limits assumed): as above

[5] = biological target: T1, human PD-1 expressed on cells; assay: flow cytometry, SEB-activated PBMC donor two
[6] = biological target: T4, hPD-1-his (human, UniProt Q15116 25-167); assay: ELISA, PD-1-his on streptavidin
T4 construct: domain: IgV domain; monomer in solution; biotin-labelled where captured by streptavidin; also called biotin-hPD-1-his
T4 sequence (Q15116 other isoform, or with tags, fused parts or gaps limits assumed): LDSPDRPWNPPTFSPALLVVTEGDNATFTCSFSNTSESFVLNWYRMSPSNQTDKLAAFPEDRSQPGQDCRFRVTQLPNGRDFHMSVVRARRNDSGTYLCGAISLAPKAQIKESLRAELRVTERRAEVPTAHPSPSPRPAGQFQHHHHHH

[7] = biological target: T4, hPD-1-his; assay: ELISA, PD-1-his on anti-his
[8] = biological target: T2, hPD-1-Fc; assay: blocking ELISA, PD-1 to PD-L1
[9] = biological target: T1, human PD-1 expressed on cells; assay: flow cytometry, activated PBMC donor two
[10] = biological target: T1, human PD-1 expressed on cells; assay: flow cytometry, hPD1-293 cells
[11] = biological target: T1, human PD-1 expressed on cells; assay: cell-based or functional assay; remark: listed apart in the source
[12] = biological target: T2, hPD-1-Fc; assay: ELISA, hPD-1-Fc coated
[13] = biological target: T4, hPD-1-his; assay: SPR, Exp. 2
[14] = biological target: T2, hPD-1-Fc; assay: SPR, Exp. 2
[15] = biological target: T1, human PD-1 expressed on cells; assay: flow cytometry, hPD-1-293 cells
[16] = biological target: T2, hPD-1-Fc; assay: SPR Biacore T200, PD-1-Fc immobilised
[17] = biological target: T2, hPD-1-Fc; assay: blocking ELISA, hPD-1 to hPD-L1; design: unit not given here
[18] = biological target: T3, hPD1 (soluble, ELISA of Example 20); assay: blocking ELISA, hPD1 to hPDL1
[19] = biological target: T1, human PD-1 expressed on cells; assay: flow cytometry, hPD1-Jurkat cells
[20] = biological target: T1, human PD-1 expressed on cells; assay: flow cytometry, hPD1-Jurkat cells; remark: listed apart in the source
[21] = biological target: T4, hPD-1-his; assay: SPR, Exp. 3
[22] = biological target: T2, hPD-1-Fc; assay: SPR, Exp. 3
[23] = biological target: T1, human PD-1 expressed on cells; assay: flow cytometry, SEB-activated PBMC donor
[24] = biological target: T1, human PD-1 expressed on cells; assay: flow cytometry, hPD-1-Jurkat cells
[25] = biological target: T4, hPD-1-his; assay: SPR, Exp. 4
[26] = biological target: T4, hPD-1-his; assay: SPR Biacore T200, PD-1-his immobilised
[27] = biological target: T4, hPD-1-his; assay: ELISA, biotin-PD-1-his on streptavidin
[28] = biological target: T4, hPD-1-his; assay: SPR, Exp. 1
[29] = biological target: T2, hPD-1-Fc; assay: SPR, Exp. 1
[30] = biological target: T1, human PD-1 expressed on cells; assay: flow cytometry, hPD1-293 cells; remark: listed apart in the source
[31] = biological target: T2, hPD-1-Fc; assay: blocking ELISA, PD-1 to PD-L2
[32] = biological target: T5, mPD-1-Fc (mouse; human, UniProt Q02242 25-167, limits assumed); assay: SPR Biacore
T5 construct: domain: IgV domain; not shown: human IgG1 Fc
T5 sequence (looked up): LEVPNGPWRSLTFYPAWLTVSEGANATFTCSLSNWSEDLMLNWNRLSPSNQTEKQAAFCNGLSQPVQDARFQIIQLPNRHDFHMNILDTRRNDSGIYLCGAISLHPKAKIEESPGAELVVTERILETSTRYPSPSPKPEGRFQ

[33] = biological target: T6, mPD-1-his (mouse, UniProt Q02242 25-167, limits assumed); assay: SPR Biacore
T6 construct: domain: IgV domain
T6 sequence: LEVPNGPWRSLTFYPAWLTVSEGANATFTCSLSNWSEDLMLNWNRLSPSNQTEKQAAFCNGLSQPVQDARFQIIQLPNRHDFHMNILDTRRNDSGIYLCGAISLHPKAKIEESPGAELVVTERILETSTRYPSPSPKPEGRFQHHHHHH

[34] = biological target: T7, mPD1 (soluble, ELISA of Examples 20 and 24) (mouse, UniProt Q02242 25-167, limits assumed); assay: ELISA, mPD1
T7 construct: also called Biotin-mPD1
T7 sequence (looked up): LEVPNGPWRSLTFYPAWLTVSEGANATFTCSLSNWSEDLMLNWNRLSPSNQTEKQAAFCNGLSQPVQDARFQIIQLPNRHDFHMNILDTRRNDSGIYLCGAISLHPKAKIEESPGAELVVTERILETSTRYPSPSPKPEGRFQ

[35] = biological target: T1, human PD-1 expressed on cells; assay: cell-based or functional assay; remark: listed apart in the source
[36] = biological target: T2, hPD-1-Fc; assay: ELISA, PD-1-Fc coated
[37] = biological target: T4, hPD-1-his; assay: ELISA, PD-1-his on anti-his; remark: listed apart in the source
[38] = biological target: T2, hPD-1-Fc; assay: SPR Biacore, hPD1-Fc
[39] = biological target: T1, human PD-1 expressed on cells; assay: cell-based or functional assay; remark: listed apart in the source

T1 sequence (Q15116 25-288): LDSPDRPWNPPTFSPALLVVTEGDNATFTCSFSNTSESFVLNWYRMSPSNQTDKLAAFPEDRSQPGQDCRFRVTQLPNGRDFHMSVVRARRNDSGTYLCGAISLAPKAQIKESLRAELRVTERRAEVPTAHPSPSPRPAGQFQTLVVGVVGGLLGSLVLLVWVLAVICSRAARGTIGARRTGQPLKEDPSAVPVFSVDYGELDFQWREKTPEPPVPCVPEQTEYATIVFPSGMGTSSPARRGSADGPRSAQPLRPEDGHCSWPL

B1: 38B2 (antibody, V domains shown)
VH: EVQLLESGGGLVQPGGSLRLSCAASGFTFSSYWMSWVRQAPGKGLEWVSAISGSGGSTYYADSVKGRFTISRDNSKNTLYLQMNSLRAEDTAVYYCASSPLQWVDVWGQGTTVTVSS
VL: DIQMTQSPSSLSASVGDRVTITCRASESISSWLAWYQQKPGKAPKLLIYDASSLESGVPSRFSGSGSGTDFTLTISSLQPEDFATYYCQQGDSFPFTFGQGTKLEIK
notes: 24H9 derivative, IgG; also called 780_54; hPD1 Ab (38B2)
EC50, Promega blockade bioassay, Exp. 1 [1]: 0.189 µg/mL | EC50, Promega blockade bioassay, Exp. 2 [1]: 0.135 µg/mL | Fold induction at 12 µg/ml, Exp. 1 [1]: 7.61 fold | Fold induction at 12 µg/ml, Exp. 2 [1]: 8.31 fold | EC50 [2]: 150 pM | MFI at 25 nM [2]: 16.6 MFI | Kd [3]: 10 to 30 pM | EC50 [4]: 125 pM | MFI, 5 nM [5]: 55.3 MFI | OD at 10 nM [6]: 1.04 OD | EC50 [7]: 60 pM | IC50 [8]: 2370 pM | Inhibition % at 50 nM [8]: 93.9% | Inhibition, % at 5.56 nM [8]: 92.7% | EC50 [9]: 100 pM | MFI at 25 nM [9]: 16.7 MFI | EC50 [10]: 120 pM | MFI at 5 nM [10]: 118 MFI | EC50, Promega blockade bioassay [11]: 0.154 µg/mL | Fold induction [11]: 6.54 fold | OD at 10 nM [12]: 1.05 OD | Kd [13]: 423 pM | Kd [14]: < 10 pM | MFI, 5 nM [15]: 297 MFI | Kd [16]: 249 pM | Inhibition at 50 nM [17]: 93.4 | IC50 [18]: 4250 pM | EC50 [19]: 160 pM | MFI at 5 nM [19]: 91 MFI | EC50 [20]: 137 pM | Kd [21]: 932 pM | Kd [22]: < 10 pM | MFI, 5 nM [23]: 64.2 MFI | MFI, 5 nM [24]: 60.8 MFI | Kd [25]: 205 pM | Kd [26]: 318 pM | EC50 [27]: 81 pM | Kd [28]: 946 pM | Kd [29]: < 33 pM | EC50 [30]: 267 pM | IC50 [31]: 1930 pM | Inhibition, % at 3.7 nM [31]: 93.9% | Inhibition, % at 100 nM [31]: 95.1% | binding result [32]: no binding | binding result [33]: no binding | binding result [34]: no binding | EC50 (read off the curve) [35]: ~500 pM | EC50 [36]: 96 pM | OD at 10 nM [37]: 0.662 OD | Kd [38]: 147 pM | koff [38]: 3.26e-05 s⁻¹ | kon [38]: 221000 M⁻¹ s⁻¹ | EC50 averaged from two experiments, Promega blockade bioassay [39]: 0.154 µg/mL | IC50, Promega blockade bioassay [39]: 725 pM
